# Test results: US20130045895A1 (published 2013)
# Experiments:
# Human Serum Albumin [1] = target: T1, Human Serum Albumin (human, UniProt P02768 25-609); assay: SPR (Biacore 2000), purified dAb over HSA (559 RU) on CM5 chip; Table 13 cell, backed by its kon and koff
# T1 construct: also called HSA; antigen
# From the text: (§1) The data analysis followed routine and established algorithms using the instrument's software (Bia-evaluation 3.2 RC1).
# Human Serum Albumin [2] = target: T1, Human Serum Albumin; assay: SPR (Biacore 2000), purified dAb over HSA (559 RU) on CM5 chip
# From the text: as §1
# Human Serum Albumin [3] = target: T1, Human Serum Albumin; assay: as above; remark: listed apart in the source
# From the text: as §1
# Human Serum Albumin [4] = target: T1, Human Serum Albumin; assay: see Table 2
# [5] = target: the molecule itself; assay: analytical ultracentrifugation (sedimentation equilibrium), self-association
# Method: In the present examples, three 6-channel equilibrium cells were loaded with 9 protein solutions made by diluting the stock sample 10-, 20-, 30-, 150-, 200-, 300-, 400-, 500, and 600-fold (a range from 540 to 90 μg/ml). Each sample channel was loaded with 120 μl of protein solution and the reference channels were loaded with 125 μl of Dulbecco's phosphate-buffered saline (DPBS) dilution buffer. These cells were then loaded into an AN90-TI rotor and placed into a Beckman Coulter ProteomeLab XL-1 analytical centrifuge equipped with both absorbance and Rayleigh interference (refractive index detection) optical systems. Absorbance scans for the three highest concentrations were recorded at 280 nm; for the lowest concentrations 230 nm was used. The temperature was set at 25° C.
# Human Serum Albumin [6] = target: T1, Human Serum Albumin; assay: BIAcore, purified protein over HSA (559 RU)
# Human Serum Albumin [7] = target: T1, Human Serum Albumin; assay: BIAcore, supernatant over immobilised HSA (6036 RU);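 note: expressed culture supernatants of mutant clones diluted 1:1 in HBS-EP buffer and screened for binding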
# Method: Screening of expressed supernatants for Protein L and HSA binding: Mutant clones were picked into a 96 well plate format and expressed in 1 mL 2×TY 0.1 mg/ml carbenicillin supplemented with OnEx solutions 1, 2 and 3 according to the manufacturer's instructions (Novagen). Cultures were grown at 30° C. for 3 days at 950 rpm high humidity in an InforsHT shaker. Cells were pelleted by centrifugation (4.5 k in a bench top Sorvall centrifuge for 30 mins) and 75 μL of the supernatant added to an equal volume of HBS-EP buffer (GE Healthcare).
# [8] = target: Protein L (Peptostreptococcus magnus); assay: BIAcore 3000, over Protein L (~500-700 RU)
# [9] = target: Protein L (Peptostreptococcus magnus); assay: BIAcore 3000, over Protein L; statistic over the plates analysed
# T1 sequence (P02768 25-609 limits assumed): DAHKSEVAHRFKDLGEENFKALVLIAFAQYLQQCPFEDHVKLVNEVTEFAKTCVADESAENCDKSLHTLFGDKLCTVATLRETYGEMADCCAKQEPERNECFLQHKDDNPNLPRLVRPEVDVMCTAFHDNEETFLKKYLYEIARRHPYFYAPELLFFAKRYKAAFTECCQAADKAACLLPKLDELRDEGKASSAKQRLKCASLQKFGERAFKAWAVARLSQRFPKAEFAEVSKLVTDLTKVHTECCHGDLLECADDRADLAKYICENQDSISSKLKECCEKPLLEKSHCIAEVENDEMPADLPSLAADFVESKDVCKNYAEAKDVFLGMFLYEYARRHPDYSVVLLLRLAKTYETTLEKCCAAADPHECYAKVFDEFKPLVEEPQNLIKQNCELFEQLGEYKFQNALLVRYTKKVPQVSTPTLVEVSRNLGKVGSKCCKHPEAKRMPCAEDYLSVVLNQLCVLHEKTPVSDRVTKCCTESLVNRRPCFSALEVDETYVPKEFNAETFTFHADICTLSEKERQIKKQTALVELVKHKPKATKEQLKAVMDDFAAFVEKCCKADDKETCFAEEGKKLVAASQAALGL
binder,measurement,setting,value
"DOM7h-11-15 (other, also called DOM7h-11-15 parent) VL: DIQMTQSPSSLSASVGDRVTITCRASRPIGTMLSWYQQKPGKAPKLLILAFSRLQSGVPSRFSGSGSGTDFTLTISSLQPEDFATYYCAQAGTHPTTFGQGTKVEIKR",Kd,Human Serum Albumin [1],384 nM
same,koff,Human Serum Albumin [2],0.0045 s⁻¹
same,kon,Human Serum Albumin [2],12000 M⁻¹ s⁻¹
"DOM7h-11-15 A43I (other, name in Kabat numbering, also called DOM7h-11-15 A43I mutant) VL: DIQMTQSPSSLSASVGDRVTITCRASRPIGTMLSWYQQKPGKIPKLLILAFSRLQSGVPSRFSGSGSGTDFTLTISSLQPEDFATYYCAQAGTHPTTFGQGTKVEIKR",fold improvement in antigen affinity over the DOM7h-11-15 parent,Human Serum Albumin [3],1000 fold
same,Kd,Human Serum Albumin [2],6.4 nM
same,koff,Human Serum Albumin [2],0.0049 s⁻¹
same,kon,Human Serum Albumin [2],770000 M⁻¹ s⁻¹
"DOM7h-11-15 A43D (other, name in Kabat numbering, also called A43D mutant of DOM7h-11-15) VL: DIQMTQSPSSLSASVGDRVTITCRASRPIGTMLSWYQQKPGKDPKLLILAFSRLQSGVPSRFSGSGSGTDFTLTISSLQPEDFATYYCAQAGTHPTTFGQGTKVEIKR",Kd,Human Serum Albumin [2],7000 nM
same,koff,Human Serum Albumin [2],0.0047 s⁻¹
same,kon,Human Serum Albumin [2],664 M⁻¹ s⁻¹
"DOM7h-8 (other, also called DOM7h-8 parent molecule; SD ctrl) VL: DIQMTQSPSSLSASVGDRVTITCRASQSISSYLNWYQQKPGKAPKLLIYRNSPLQSGVPSRFSGSGSGTDFTLTISSLQPEDFATYYCQQTYRVPPTFGQGTKVEIKR",binding result,Human Serum Albumin [4],binds
same,Kd,[5],120 nM
DOM7h-8 L46D (other) VL: DIQMTQSPSSLSASVGDRVTITCRASQSISSYLNWYQQKPGKAPKDLIYRNSPLQSGVPSRFSGSGSGTDFTLTISSLQPEDFATYYCQQTYRVPPTFGQGTKVEIKR,binding result,Human Serum Albumin [6],binds
DOM7h-8 Y87L (other) VL: DIQMTQSPSSLSASVGDRVTITCRASQSISSYLNWYQQKPGKAPKLLIYRNSPLQSGVPSRFSGSGSGTDFTLTISSLQPEDFATYLCQQTYRVPPTFGQGTKVEIKR,binding result,Human Serum Albumin [6],binds
"DOM7h-14 (other, also called 7h14 wt) VL: DIQMTQSPSSLSASVGDRVTITCRASQWIGSQLSWYQQKPGKAPKLLIMWRSSLQSGVPSRFSGSGSGTDFTLTISSLQPEDFATYYCAQGAALPRTFGQGTKVEIKR",binding result,Human Serum Albumin [7],binds
same,Kd,[5],250000 nM
DOM7h-14 Q38F (other) VL: DIQMTQSPSSLSASVGDRVTITCRASQWIGSQLSWYQFKPGKAPKLLIMWRSSLQSGVPSRFSGSGSGTDFTLTISSLQPEDFATYYCAQGAALPRTFGQGTKVEIKR,binding result,Human Serum Albumin [7],binds
DOM7h-14 Q38P (other) VL: DIQMTQSPSSLSASVGDRVTITCRASQWIGSQLSWYQPKPGKAPKLLIMWRSSLQSGVPSRFSGSGSGTDFTLTISSLQPEDFATYYCAQGAALPRTFGQGTKVEIKR,binding result,Human Serum Albumin [7],binds
"DOM7h-14-10 A43D (other, name in Kabat numbering, also called A43D mutant of DOM7h-14-10) VL: DIQMTQSPSSLSASVGDRVTITCRASQWIGSQLSWYQQKPGKDPKLLIMWRSSLQSGVPSRFSGSGSGTDFTLTISSLQPEDFATYYCAQGLRHPKTFGQGTKVEIKR",fold improvement in antigen affinity over DOM7h-14-10,Human Serum Albumin [3],2 fold
same,Kd,Human Serum Albumin [2],11.7 nM
same,koff,Human Serum Albumin [2],0.012 s⁻¹
same,kon,Human Serum Albumin [2],990000 M⁻¹ s⁻¹
DOM7h-14 Q38W (other) VL: DIQMTQSPSSLSASVGDRVTITCRASQWIGSQLSWYQWKPGKAPKLLIMWRSSLQSGVPSRFSGSGSGTDFTLTISSLQPEDFATYYCAQGAALPRTFGQGTKVEIKR,binding result,Human Serum Albumin [7],binds
DOM7h-14 Q38T (other) VL: DIQMTQSPSSLSASVGDRVTITCRASQWIGSQLSWYQTKPGKAPKLLIMWRSSLQSGVPSRFSGSGSGTDFTLTISSLQPEDFATYYCAQGAALPRTFGQGTKVEIKR,binding result,Human Serum Albumin [7],binds
DOM7h-14 Q38H (other) VL: DIQMTQSPSSLSASVGDRVTITCRASQWIGSQLSWYQHKPGKAPKLLIMWRSSLQSGVPSRFSGSGSGTDFTLTISSLQPEDFATYYCAQGAALPRTFGQGTKVEIKR,binding result,Human Serum Albumin [7],binds
"DOM7h-14-10 A43I (other, name in Kabat numbering, also called A43I mutant of DOM7h-14-10) VL: DIQMTQSPSSLSASVGDRVTITCRASQWIGSQLSWYQQKPGKIPKLLIMWRSSLQSGVPSRFSGSGSGTDFTLTISSLQPEDFATYYCAQGLRHPKTFGQGTKVEIKR",fold improvement in antigen affinity over DOM7h-14-10,Human Serum Albumin [3],2 fold
same,Kd,Human Serum Albumin [2],13.1 nM
same,koff,Human Serum Albumin [2],0.012 s⁻¹
same,kon,Human Serum Albumin [2],890000 M⁻¹ s⁻¹
"DOM7h-14-10 (other, also called DOM7h-14-10 parent) VL: DIQMTQSPSSLSASVGDRVTITCRASQWIGSQLSWYQQKPGKAPKLLIMWRSSLQSGVPSRFSGSGSGTDFTLTISSLQPEDFATYYCAQGLRHPKTFGQGTKVEIKR",Kd,Human Serum Albumin [2],26 nM
same,koff,Human Serum Albumin [2],0.017 s⁻¹
same,kon,Human Serum Albumin [2],670000 M⁻¹ s⁻¹
DOM7h-14 Q38G (other) VL: DIQMTQSPSSLSASVGDRVTITCRASQWIGSQLSWYQGKPGKAPKLLIMWRSSLQSGVPSRFSGSGSGTDFTLTISSLQPEDFATYYCAQGAALPRTFGQGTKVEIKR,binding result,Human Serum Albumin [7],binds
DOM7h-14 Q38M (other) VL: DIQMTQSPSSLSASVGDRVTITCRASQWIGSQLSWYQMKPGKAPKLLIMWRSSLQSGVPSRFSGSGSGTDFTLTISSLQPEDFATYYCAQGAALPRTFGQGTKVEIKR,binding result,Human Serum Albumin [7],binds
DOM7h-14 Q38N (other) VL: DIQMTQSPSSLSASVGDRVTITCRASQWIGSQLSWYQNKPGKAPKLLIMWRSSLQSGVPSRFSGSGSGTDFTLTISSLQPEDFATYYCAQGAALPRTFGQGTKVEIKR,binding result,Human Serum Albumin [7],binds
DOM7h-14 Q38L (other) VL: DIQMTQSPSSLSASVGDRVTITCRASQWIGSQLSWYQLKPGKAPKLLIMWRSSLQSGVPSRFSGSGSGTDFTLTISSLQPEDFATYYCAQGAALPRTFGQGTKVEIKR,binding result,Human Serum Albumin [7],binds
DOM7h-14 Q38V (other) VL: DIQMTQSPSSLSASVGDRVTITCRASQWIGSQLSWYQVKPGKAPKLLIMWRSSLQSGVPSRFSGSGSGTDFTLTISSLQPEDFATYYCAQGAALPRTFGQGTKVEIKR,binding result,Human Serum Albumin [7],binds
DOM7h-14 Q38E (other) VL: DIQMTQSPSSLSASVGDRVTITCRASQWIGSQLSWYQEKPGKAPKLLIMWRSSLQSGVPSRFSGSGSGTDFTLTISSLQPEDFATYYCAQGAALPRTFGQGTKVEIKR,binding result,Human Serum Albumin [7],binds
DOM7h-14 Q38Y (other) VL: DIQMTQSPSSLSASVGDRVTITCRASQWIGSQLSWYQYKPGKAPKLLIMWRSSLQSGVPSRFSGSGSGTDFTLTISSLQPEDFATYYCAQGAALPRTFGQGTKVEIKR,binding result,Human Serum Albumin [7],binds
DOM7h-14 Q38S (other) VL: DIQMTQSPSSLSASVGDRVTITCRASQWIGSQLSWYQSKPGKAPKLLIMWRSSLQSGVPSRFSGSGSGTDFTLTISSLQPEDFATYYCAQGAALPRTFGQGTKVEIKR,binding result,Human Serum Albumin [7],binds
DOM7h-14 Q38K (other) VL: DIQMTQSPSSLSASVGDRVTITCRASQWIGSQLSWYQKKPGKAPKLLIMWRSSLQSGVPSRFSGSGSGTDFTLTISSLQPEDFATYYCAQGAALPRTFGQGTKVEIKR,binding result,Human Serum Albumin [7],binds
DOM7h-14 Q38R (other) VL: DIQMTQSPSSLSASVGDRVTITCRASQWIGSQLSWYQRKPGKAPKLLIMWRSSLQSGVPSRFSGSGSGTDFTLTISSLQPEDFATYYCAQGAALPRTFGQGTKVEIKR,binding result,Human Serum Albumin [7],binds
DOM7h-14 Q38I (other) VL: DIQMTQSPSSLSASVGDRVTITCRASQWIGSQLSWYQIKPGKAPKLLIMWRSSLQSGVPSRFSGSGSGTDFTLTISSLQPEDFATYYCAQGAALPRTFGQGTKVEIKR,binding result,Human Serum Albumin [7],binds
DOM4-130-54 (protein) VL: DIQMTQSPSSLSASVGDRVTITCRASQDIYLNLDWYQQKPGKAPKLLINFGSELQSGVPSRFSGSGYGTDFTLTISSLQPEDFATYYCQPSFYFPYTFGQGTKVEIKRA,% B5 (proportion of dAb bound at 5 min of dissociation),[8],4%
same,"% B5, 25% Percentile",[9],3.9%
same,"% B5, 75% Percentile",[9],4%
same,"% B5, Maximum",[9],4%
same,"% B5, Mean",[9],3.9%
same,"% B5, Median",[9],4%
same,"% B5, Minimum",[9],3.6%
